What follows are binders tested against human CD3 (human, UniProt P07766 23-207; P09693 23-182; P04234 22-171; P20963 22-164) (assay: cell-based or functional assay).
Chain of human CD3 (P07766 23-207, chain 1 of 4): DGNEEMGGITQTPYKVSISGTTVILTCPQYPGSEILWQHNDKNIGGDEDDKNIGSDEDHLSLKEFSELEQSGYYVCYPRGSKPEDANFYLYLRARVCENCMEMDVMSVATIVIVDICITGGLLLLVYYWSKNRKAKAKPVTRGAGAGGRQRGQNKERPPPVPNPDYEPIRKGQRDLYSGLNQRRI
Chain of human CD3 (P09693 23-182, chain 2 of 4): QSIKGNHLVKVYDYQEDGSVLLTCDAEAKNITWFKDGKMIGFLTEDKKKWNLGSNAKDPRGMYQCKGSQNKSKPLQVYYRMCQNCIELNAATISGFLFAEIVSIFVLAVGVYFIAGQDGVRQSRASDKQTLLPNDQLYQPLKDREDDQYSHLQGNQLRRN
Chain of human CD3 (P04234 22-171, chain 3 of 4): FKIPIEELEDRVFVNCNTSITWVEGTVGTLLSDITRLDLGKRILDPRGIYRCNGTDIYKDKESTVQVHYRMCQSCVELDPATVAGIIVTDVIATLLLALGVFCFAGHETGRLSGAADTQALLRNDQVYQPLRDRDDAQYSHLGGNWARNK
Chain of human CD3 (P20963 22-164, chain 4 of 4): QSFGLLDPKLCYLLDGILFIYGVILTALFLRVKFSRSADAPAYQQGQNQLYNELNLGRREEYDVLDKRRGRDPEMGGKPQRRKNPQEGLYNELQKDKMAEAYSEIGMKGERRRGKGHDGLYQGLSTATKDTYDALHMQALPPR

| Binder | CD25 Induction EC50 (PBMC, 24 h) [pM] | CD69 Induction EC50 (PBMC, 24 h) [pM] |
| --- | --- | --- |
| CD33/CD3 2×2 T-cell engager 10 (bispecific antibody) DIQMTQSPSSLSASVGDRVTITCRSSTGAVTTSNYANWVQQKPGKAPKGLIGGTNKRAPGVPSRFSGSLIGDKATLTISSLQPEDFATYYCALWYSNLWVFGQGTKVEIKGGSGGSQVQLVQSGAEVKKPGASVKVSCKASGYTFTSYDINWVRQAPGQGLEWMGWMNPNSGNTGFAQKFQGRVTMTRDTSTSTVYMELSSLRSEDTAVYYCARDRANTDYSFGMDVWGQGTLVTVSSGGSGQSVLTQPPSASGTPGQRVTISCSGSRSNIGSNTVNWYQQLPGTAPKLLIYGNNQRPSGVPDRFSGSKSGTSASLAISGLQSEDEADYYCATWDDSLIGWVFGGGTKLTVLGGSGGSEVQLVESGGGLVQPGGSLRLSCAASGFTFSTYAMNWVRQAPGKGLEWVGRIRSKYNNYATYYADSVKDRFTISRDDSKNSLYLQMNSLKTEDTAVYYCARHGNFGNSYVSWFAYWGQGTLVTVSSAAAGSHHHHHH | 10 | 6 |
| CD33/CD3 2×2 T-cell engager 11 (bispecific antibody) DIQMTQSPSSLSASVGDRVTITCRSSTGAVTTSNYANWVQQKPGKAPKGLIGGTNKRAPGVPSRFSGSLIGDKATLTISSLQPEDFATYYCALWYSNLWVFGQGTKVEIKGGSGGSQVQLVQSGAEVKKPGASVKVSCKASGYTFTSYDINWVRQAPGQGLEWMGWMNPNSGNTGFAQKFQGRVTMTRDTSTSTVYMELSSLRSEDTAVYYCARDRANTDYSLGMDVWGQGTLVTVSSGGSGQSVLTQPPSASGTPGQRVTISCSGSRSNIGSNTVNWYQQLPGTAPKLLIYGNNQRPSGVPDRFSGSKSGTSASLAISGLQSEDEADYYCATWDDSLIGWVFGGGTKLTVLGGSGGSEVQLVESGGGLVQPGGSLRLSCAASGFTFSTYAMNWVRQAPGKGLEWVGRIRSKYNNYATYYADSVKDRFTISRDDSKNSLYLQMNSLKTEDTAVYYCARHGNFGNSYVSWFAYWGQGTLVTVSSAAAGSHHHHHH | 11 | 5 |
| CD33/CD3 2×2 T-cell engager 13 (bispecific antibody) DIQMTQSPSSLSASVGDRVTITCRSSTGAVTTSNYANWVQQKPGKAPKGLIGGTNKRAPGVPSRFSGSLIGTDFTLTISSLQPEDFATYYCALWYSNLWVFGQGTKVEIKGGSGGSQVQLVQSGAEVKKPGASVKVSCKASGYTFTSYDINWVRQAPGQGLEWMGWMNPNSGNTGFAQKFQGRVTMTRDTSTSTVYMELSSLRSEDTAVYYCARDRAVTDYYYGMDVWGQGTLVTVSSGGSGQSVLTQPPSASGTPGQRVTISCSGSRSNIGSNTVNWYQQLPGTAPKLLIYGNNQRPSGVPDRFSGSKSGTSASLAISGLQSEDEADYYCATWDDSLIGWVFGGGTKLTVLGGSGGSEVQLVESGGGLVQPGGSLRLSCAASGFTFSTYAMNWVRQAPGKGLEWVGRIRSKYNNYATYYADSVKDRFTISRDDSKNSLYLQMNSLKTEDTAVYYCARHGNFGNSYVSWFAYWGQGTLVTVSSAAAGSHHHHHH | 30 | 22 |
| CD33/CD3 2×2 T-cell engager 09 (bispecific antibody) DIQMTQSPSSLSASVGDRVTITCRSSTGAVTTSNYANWVQQKPGKAPKGLIGGTNKRAPGVPSRFSGSLIGDKATLTISSLQPEDFATYYCALWYSNLWVFGQGTKVEIKGGSGGSQVQLVQSGAEVKKPGASVKVSCKASGYTFTSYDINWVRQAPGQGLEWMGWMNPNSGNTGFAQKFQGRVTMTRDTSTSTVYMELSSLRSEDTAVYYCARDRANTDFSYGMDVWGQGTLVTVSSGGSGQSVLTQPPSASGTPGQRVTISCSGSRSNIGSNTVNWYQQLPGTAPKLLIYGNNQRPSGVPDRFSGSKSGTSASLAISGLQSEDEADYYCATWDDSLIGWVFGGGTKLTVLGGSGGSEVQLVESGGGLVQPGGSLRLSCAASGFTFSTYAMNWVRQAPGKGLEWVGRIRSKYNNYATYYADSVKDRFTISRDDSKNSLYLQMNSLKTEDTAVYYCARHGNFGNSYVSWFAYWGQGTLVTVSSAAAGSHHHHHH | 11 | 7 |
| CD33/CD3 2×2 T-cell engager 04 (bispecific antibody) DIQMTQSPSSLSASVGDRVTITCRSSTGAVTTSNYANWVQQKPGKAPKGLIGGTNKRAPGVPARFSGSGSGTDFTLTISSLQPEDFATYYCALWYSNLWVFGQGTKVEIKGGSGGSQVQLVQSGAEVKKPGASVKVSCKASGYTFTSYDINWVRQAPGQGLEWMGWMNPNSGNTGFAQKFQGRVTMTRDTSTSTVYMELSSLRSEDTAVYYCARDRANTDYSLGMDVWGQGTLVTVSSGGSGQSVLTQPPSASGTPGQRVTISCSGSRSNIGSNTVNWYQQLPGTAPKLLIYGNNQRPSGVPDRFSGSKSGTSASLAISGLQSEDEADYYCATWDDSLIGWVFGGGTKLTVLGGSGGSEVQLVESGGGLVQPGGSLRLSCAASGFTFSTYAMNWVRQAPGKGLEWVGRIRSKYNNYATYYADSVKDRFTISRDDSKNSLYLQMNSLKTEDTAVYYCARHGNFGNSYVSWFAYWGQGTLVTVSSAAAGSHHHHHH | 94 | 62 |
| CD33/CD3 2×2 T-cell engager 03 (bispecific antibody) DIQMTQSPSSLSASVGDRVTITCRSSTGAVTTSNYANWVQQKPGKAPKGLIGGTNKRAPGVPARFSGSGSGTDFTLTISSLQPEDFATYYCALWYSNLWVFGQGTKVEIKGGSGGSQVQLVQSGAEVKKPGASVKVSCKASGYTFTSYDINWVRQAPGQGLEWMGWMNPNSGNTGFAQKFQGRVTMTRDTSTSTVYMELSSLRSEDTAVYYCARDRANTDYSFGMDVWGQGTLVTVSSGGSGQSVLTQPPSASGTPGQRVTISCSGSRSNIGSNTVNWYQQLPGTAPKLLIYGNNQRPSGVPDRFSGSKSGTSASLAISGLQSEDEADYYCATWDDSLIGWVFGGGTKLTVLGGSGGSEVQLVESGGGLVQPGGSLRLSCAASGFTFSTYAMNWVRQAPGKGLEWVGRIRSKYNNYATYYADSVKDRFTISRDDSKNSLYLQMNSLKTEDTAVYYCARHGNFGNSYVSWFAYWGQGTLVTVSSAAAGSHHHHHH | 117 | 87 |
| CD33/CD3 2×2 T-cell engager 02 (bispecific antibody) DIQMTQSPSSLSASVGDRVTITCRSSTGAVTTSNYANWVQQKPGKAPKGLIGGTNKRAPGVPARFSGSGSGTDFTLTISSLQPEDFATYYCALWYSNLWVFGQGTKVEIKGGSGGSQVQLVQSGAEVKKPGASVKVSCKASGYTFTSYDINWVRQAPGQGLEWMGWMNPNSGNTGFAQKFQGRVTMTRDTSTSTVYMELSSLRSEDTAVYYCARDRAVTDYYYGMDVWGQGTLVTVSSGGSGQSVLTQPPSASGTPGQRVTISCSGSRSNIGSNTVNWYQQLPGTAPKLLIYGNNQRPSGVPDRFSGSKSGTSASLAISGLQSEDEADYYCATWDDSLIGWVFGGGTKLTVLGGSGGSEVQLVESGGGLVQPGGSLRLSCAASGFTFSTYAMNWVRQAPGKGLEWVGRIRSKYNNYATYYADSVKDRFTISRDDSKNSLYLQMNSLKTEDTAVYYCARHGNFGNSYVSWFAYWGQGTLVTVSSAAAGSHHHHHH | 42 | 27 |
| CD33/CD3 2×2 T-cell engager 01 (bispecific antibody) DIQMTQSPSSLSASVGDRVTITCRSSTGAVTTSNYANWVQQKPGKAPKGLIGGTNKRAPGVPARFSGSGSGTDFTLTISSLQPEDFATYYCALWYSNLWVFGQGTKVEIKGGSGGSQVQLVQSGAEVKKPGASVKVSCKASGYTFTSYDINWVRQAPGQGLEWMGWMNPNSGNTGFAQKFQGRVTMTRDTSTSTVYMELSSLRSEDTAVYYCARDRANTDFSYGMDVWGQGTLVTVSSGGSGQSVLTQPPSASGTPGQRVTISCSGSRSNIGSNTVNWYQQLPGTAPKLLIYGNNQRPSGVPDRFSGSKSGTSASLAISGLQSEDEADYYCATWDDSLIGWVFGGGTKLTVLGGSGGSEVQLVESGGGLVQPGGSLRLSCAASGFTFSTYAMNWVRQAPGKGLEWVGRIRSKYNNYATYYADSVKDRFTISRDDSKNSLYLQMNSLKTEDTAVYYCARHGNFGNSYVSWFAYWGQGTLVTVSSAAAGSHHHHHH | 92 | 91 |

Source: patent publication US20210324076A1 (AMPHIVENA THERAPEUTICS, published 2021)
